This is an account of results in IntAct's records for PubMed 21295698.

Assay [1] concerns the target ogt1_human OGT (UniProt O15294).
Assay [2] has the same target. The source holds these as a separate data set.

Sequence of UniProt O15294 (O15294 whole entry): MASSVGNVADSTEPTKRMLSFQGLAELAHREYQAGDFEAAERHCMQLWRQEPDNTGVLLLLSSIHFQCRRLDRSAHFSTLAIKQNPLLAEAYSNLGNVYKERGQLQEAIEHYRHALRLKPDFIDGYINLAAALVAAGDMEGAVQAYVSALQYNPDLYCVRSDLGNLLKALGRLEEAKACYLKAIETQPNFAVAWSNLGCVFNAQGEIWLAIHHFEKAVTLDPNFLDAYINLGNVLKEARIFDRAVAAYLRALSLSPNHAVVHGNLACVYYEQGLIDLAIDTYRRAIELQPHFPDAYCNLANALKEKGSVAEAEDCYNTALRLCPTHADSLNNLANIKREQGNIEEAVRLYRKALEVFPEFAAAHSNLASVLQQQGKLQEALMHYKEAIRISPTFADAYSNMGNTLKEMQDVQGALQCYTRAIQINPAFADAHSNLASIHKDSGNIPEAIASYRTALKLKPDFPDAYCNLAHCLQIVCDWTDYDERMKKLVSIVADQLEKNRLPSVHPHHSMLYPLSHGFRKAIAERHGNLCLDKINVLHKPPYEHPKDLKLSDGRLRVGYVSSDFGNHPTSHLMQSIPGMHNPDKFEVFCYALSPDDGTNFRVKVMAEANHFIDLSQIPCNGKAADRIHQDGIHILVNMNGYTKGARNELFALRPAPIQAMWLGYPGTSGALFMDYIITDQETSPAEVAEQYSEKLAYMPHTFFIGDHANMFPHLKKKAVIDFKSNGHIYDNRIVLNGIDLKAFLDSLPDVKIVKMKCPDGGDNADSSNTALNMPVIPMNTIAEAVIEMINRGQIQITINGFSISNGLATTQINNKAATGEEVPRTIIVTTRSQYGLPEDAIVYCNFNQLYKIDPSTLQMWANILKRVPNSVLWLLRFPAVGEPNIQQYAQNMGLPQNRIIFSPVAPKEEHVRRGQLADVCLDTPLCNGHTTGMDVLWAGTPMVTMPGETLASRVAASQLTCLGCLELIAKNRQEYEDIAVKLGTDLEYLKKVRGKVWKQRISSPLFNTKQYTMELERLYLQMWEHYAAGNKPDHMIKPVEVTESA

Consider “Host cell factor 1 (Homo sapiens), P51610 N1077A”, for which, in the assay with ogt1_human OGT [1], the “effect of a mutation on the interaction” value was “decreasing interaction”. “Host cell factor 1 (Homo sapiens), P51610 T1085A”: the “effect of a mutation on the interaction” value with ogt1_human OGT [1] is on record as “decreasing interaction”. For “Host cell factor 1 (Homo sapiens), P51610 T1090A”, the “effect of a mutation on the interaction” value in the assay with ogt1_human OGT [1] is “disrupting interaction”.

In the case of “Host cell factor 1 (Homo sapiens), P51610 C1080A”, in the assay with ogt1_human OGT [1], the “effect of a mutation on the interaction” value is listed as “decreasing interaction”. With “Host cell factor 1 (Homo sapiens), P51610 T1088A”, in the assay with ogt1_human OGT [1], the “effect of a mutation on the interaction” value is “disrupting interaction”. Still for that read-out and setting: in the case of “Host cell factor 1 (Homo sapiens), P51610 T1087A” it was “disrupting interaction”. On the same count and under the same terms, the entry for “Host cell factor 1 (Homo sapiens), P51610 C1075A” is “decreasing interaction”.

For the substance “Host cell factor 1 (Homo sapiens), P51610 P1078A”, in the assay with ogt1_human OGT [1], the “effect of a mutation on the interaction” value is listed as “decreasing interaction”. Same read-out and setting: the entry for “Host cell factor 1 (Homo sapiens), P51610 H1083A” is “decreasing interaction”; for “Host cell factor 1 (Homo sapiens), P51610 T1082A” it is “decreasing interaction”; for “Host cell factor 1 (Homo sapiens), P51610 T1092A” it is “disrupting interaction”. Regarding “Host cell factor 1 (Homo sapiens), P51610 E1081A”, the “effect of a mutation on the interaction” value with ogt1_human OGT [1] was “disrupting interaction”; with ogt1_human OGT [2] it was “increasing interaction”. Take “Host cell factor 1 (Homo sapiens), P51610 P1079A”: the “effect of a mutation on the interaction” value with ogt1_human OGT [1] is “decreasing interaction”.
